Test results from paper PMC12639696, “Death-associated protein kinase 1-dependent SENP1 degradation increases tau SUMOylation and leads to cognitive dysfunction in a mouse model for tauopathy” (Molecular Neurodegeneration, 2025).

Target: T1, His-DAPK1 (848–1288 aa) (UniProt P53355 848-1288)
T1 construct: source: purified recombinant protein
T1 sequence (looked up): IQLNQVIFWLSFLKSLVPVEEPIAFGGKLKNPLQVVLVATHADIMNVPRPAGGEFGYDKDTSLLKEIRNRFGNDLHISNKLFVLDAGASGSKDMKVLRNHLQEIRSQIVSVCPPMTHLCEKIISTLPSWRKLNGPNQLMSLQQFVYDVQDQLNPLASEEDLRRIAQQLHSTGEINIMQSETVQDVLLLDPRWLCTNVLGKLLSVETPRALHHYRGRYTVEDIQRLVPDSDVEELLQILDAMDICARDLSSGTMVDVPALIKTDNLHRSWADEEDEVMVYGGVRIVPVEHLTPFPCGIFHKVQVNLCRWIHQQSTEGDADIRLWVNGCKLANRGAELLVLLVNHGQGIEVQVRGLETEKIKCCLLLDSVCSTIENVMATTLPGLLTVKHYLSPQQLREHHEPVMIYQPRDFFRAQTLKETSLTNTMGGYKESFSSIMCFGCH
Experiment: pull-down; purified His-DAPK1 (848–1288 aa) incubated with GST or GST-SENP1 proteins; immunoblot with an anti-His antibody
Conditions: both partners purified

binding result: binds
B1: GST-SENP1 (1-200 aa) (domain or fragment, UniProt Q9P0U3 1-200, looked up)
chain: MDDIADRMRMDAGEVTLVNHNSVFKTHLLPQTGFPEDQLSLSDQQILSSRQGHLDRSFTCSTRSAAYNPSYYSDNPSSDSFLGSGDLRTFGQSANGQWRNSTPSSSSSLQKSRNSRSLYLETRKTSSGLSNSFAGKSNHHCHVSAYEKSFPIKPVPSPSWSGSCRRSLLSPKKTQRRHVSTAEETVQEEEREIYRQLLQM
notes: Sentrin-specific protease 1 (SENP1), N-terminal region, residues 1-200; also called N-terminal region (1-200 aa) of SENP1; source: E. coli, purified GST fusion protein
